Test results: patent publication US20160144027A1 (SAMSUNG ELECTRONICS, published 2016)

Target: T1, human c-Met/Fc fusion protein (R&D Systems) (human, UniProt P08581 25-932)
T1 construct: Purchased reagent coated on ELISA plates; also called human c-Met/Fc protein; not shown: Fc part of the purchased fusion
Experiment: ELISA, hybridoma culture on plate-coated human c-Met/Fc fusion protein (2 ug/mL)
Experimental: Human c-Met/Fc fusion protein was seeded in an amount of 50 μL (2 μg/mL)/well to microtiter plates and allowed to adhere to the surface of each well. The antibody that remained unbound was removed by washing.
The hybridoma cell culture obtained in Reference Example 1.1.2 was added in an amount of 50 μL to each well of the plates and incubated for 1 hour. The cells remaining unreacted were washed out with a sufficient amount of Tris-buffered saline and Tween 20 (TBST). Goat anti-mouse IgG-horseradish peroxidase (HRP) was added to the plates and incubated for 1 hour at room temperature. The plates were washed with a sufficient amount of TBST, followed by reacting the peroxidase with a substrate (OPD). Absorbance at 450 nm was measured on an ELISA reader.

T1 sequence (P08581 25-932): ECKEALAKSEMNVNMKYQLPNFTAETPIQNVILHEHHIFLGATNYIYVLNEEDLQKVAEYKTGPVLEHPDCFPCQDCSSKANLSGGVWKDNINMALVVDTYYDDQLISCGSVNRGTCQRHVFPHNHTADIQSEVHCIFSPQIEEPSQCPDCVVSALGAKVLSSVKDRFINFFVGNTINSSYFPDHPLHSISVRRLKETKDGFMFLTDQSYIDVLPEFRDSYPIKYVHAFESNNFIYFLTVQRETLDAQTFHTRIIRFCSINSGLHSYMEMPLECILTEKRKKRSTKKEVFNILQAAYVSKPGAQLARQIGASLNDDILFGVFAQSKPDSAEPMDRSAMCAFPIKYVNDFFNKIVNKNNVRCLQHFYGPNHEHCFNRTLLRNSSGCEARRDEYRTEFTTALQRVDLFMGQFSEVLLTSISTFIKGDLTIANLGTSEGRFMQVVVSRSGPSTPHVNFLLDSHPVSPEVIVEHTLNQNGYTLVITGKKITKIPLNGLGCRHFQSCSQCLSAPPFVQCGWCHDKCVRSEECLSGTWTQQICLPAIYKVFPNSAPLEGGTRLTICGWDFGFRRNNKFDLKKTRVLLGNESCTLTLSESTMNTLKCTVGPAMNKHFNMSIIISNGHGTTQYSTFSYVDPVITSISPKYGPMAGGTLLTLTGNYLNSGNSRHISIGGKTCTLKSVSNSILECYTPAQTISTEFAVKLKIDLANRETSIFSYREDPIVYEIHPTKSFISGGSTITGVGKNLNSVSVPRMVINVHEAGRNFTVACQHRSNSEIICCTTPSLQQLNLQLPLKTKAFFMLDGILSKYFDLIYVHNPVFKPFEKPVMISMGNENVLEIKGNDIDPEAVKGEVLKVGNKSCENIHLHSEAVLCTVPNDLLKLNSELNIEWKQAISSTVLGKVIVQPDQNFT

binding result: binds
B1: AbF46, a mouse antibody to c-Met (antibody, V domains shown)
VH: EVKLVESGGGLVQPGGSLRLSCATSGFTFTDYYMSWVRQPPGKALEWLGFIRNKANGYTTEYSASVKGRFTISRDNSQSILYLQMDTLRAEDSATYYCARDNWFAYWGQGTLVTVSA
VL: DILMTQSPSSLTVSAGEKVTMSCKSSQSLLASGNQNNYLAWHQQKPGRSPKMLIIWASTRVSGVPDRFIGSGSGTDFTLTINSVQAEDLAVYYCQQSYSAPLTFGAGTKLELK
notes: Mouse monoclonal antibody from the single hybridoma clone chosen by ELISA; In the screening assay it was present as hybridoma culture supernatant; also called monoclonal antibody of hybridoma KCLRF-BP-00220
